Measurements taken from the supplement of paper PMC9170038.

System: MS2 coat protein
Assay: apparent KD of MS2 coat protein; designed switch direction (-1 OFF switch, 1 ON switch): -1; higher = weaker reporter binding
Method in brief: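 Normalised cluster fluorescence was curve-fitted, and each design's median over clusters is its apparent KD. Before this, SNAP-549-labelled MS2 coat protein was titrated from 0.7 or 1.5 nM, doubling to 3 µM, over RNA switches transcribed on Illumina chips by stalled E. coli RNA polymerase. Titrations had no input, 200 uM small-molecule ligand, or an oligonucleotide input, and steps lasted 0.8–1.5 h (lowest) to 10–20 min (highest).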

[1] = Eterna round: R95, input ligand: FMN 200 uM
[2] = Eterna round: R95, input ligand: microRNA oligo, concentration not stated
[3] = Eterna round: R95, input ligand: none
[4] = input ligand: microRNA oligo, concentration not stated

| Sequence | apparent KD of MS2 coat protein [1] [nM] | apparent KD of MS2 coat protein [2] [nM] | apparent KD of MS2 coat protein [3] [nM] | apparent KD of MS2 coat protein (input ligand: FMN 200 uM) [nM] | apparent KD of MS2 coat protein [4] [nM] | apparent KD of MS2 coat protein (input ligand: none) [nM] |
| --- | --- | --- | --- | --- | --- | --- |
| AAAAAACAUGAGGAUCACCCAUGUCAGGAUAUCCGCGAAGGAAAGAAAAAAAAAAAAGGGAGAAGGGACAAAAA [April's Ex-date #4] (puzzle: Exclusion 1) | 49.5 | 52.8 | 28.5 | – | – | – |
| AAAAAGCGAGGAUAUACAUGAGGAUCACCCAUGUGAGGGCACCGCGGGCGCGGGACCGGUAGAAGGCGCAAAAA [Exc;s3-II] (puzzle: Exclusion 3) | 33.6 | 24.1 | 38.5 | – | – | – |
| AAAACAAACGAAGGAUAUGCAACCCGGCGGUACGCAGAAGGUCGAAAGAUUUUCAUUCUACAUGAGGAUCACCCAUGUACGGGC [Leange] (Eterna round: R96, puzzle: Exclusion NG 1) | – | – | – | 48.5 | 39.7 | 52.3 |
| AAAACAAGCAUAAGAUCCCACAUGAGGAUCACCCAUGUGCUCGUCUUAUAAAAGGUUUCGACGAAAACGUCGAGACC [Eli 91 v30] (Eterna round: R97, puzzle: Sensor, turn-off variant 1) | – | – | – | 29.6 | – | 29.6 |
| AAAACACAUGAGGAUCACCCAUGUGAGGAUAUGUCCAUGCUCGGCAAACCGGGCAUGGACAGAAGGCACAUAAA [JR_Exclusion1_Sub015] (puzzle: Exclusion 1) | – | 40.3 | – | – | – | – |
| AAAACACAUGAGGAUCACCCAUGUGAGGAUAUGUUAAUUUUAAUGAAAAUUAAAAUUAACAGAAGGCACAGAAA [JR_Exclusion1_Sub024] (puzzle: Exclusion 1) | 46.3 | 45.6 | 54.2 | – | – | – |
| AAAAGAAAACGAGGAUAUGCGCGUAACGUACAUCCUCUAGACAUGAGGAUCACCCAUGUAGCGCAGCAGAAGGCGUAAAAGAAA [Orises] (Eterna round: R96, puzzle: Exclusion NG 2) | – | – | – | 724 | 75 | 84.3 |
| AAAAGAAUAAAAGGAUAUAGGAAAGGAAGUGUACUAGAAGGUUUGUUAACAUGAGGAUCACCCAUGUGCUCAGACACAGGGUGC [PowerStrip EXNG 1.3] (Eterna round: R96, puzzle: Exclusion NG 1) | – | – | – | – | 91.5 | – |
| AAAAGCUAAGGAUAUACAUGAGGAUCACCCAUGUACACCGGUACGGGUGCGAACUCCUGUAGAAGGUGGGAUAA [Atatlege] (puzzle: Exclusion 3) | – | 121 | – | – | – | – |
| AAAAGGACAGGAUAUUCGACUCGCAACAUGAGGAUCACCCAUGUGGUCGUCCAGUCGCUCGAAGAAGGGUUAAAAC [Cegeesbe] (puzzle: Exclusion 5) | 74.7 | 26.7 | 31.3 | – | – | – |
| AAAAGUUUUCAGGAUAUGUGCGAUUAAUAUCGUGCAGAAGGGAGGACAUGAGGAUCACCCAUGUUGAAGACAAC [Omei Ex6 A18] (Eterna round: R97, puzzle: Exclusion 6) | – | – | – | 66.1 | – | 80.2 |
| AAAAUACAUGAGGAUCACCCAUGUUAGGAUAUGCAAAGCCCAGUUAGCUUUUGGGUAGGUAGAAGGGACGGGUA [Reenen] (puzzle: Exclusion 1) | – | 21.5 | – | – | – | – |
| AAAAUGUCAGGAUAUACGAAACAAAACAAAACAAAACAAAAGUAGAAGGGACAUGAGGAUCACCCAUGUAAGAA [Exclusion 4 #2] (puzzle: Exclusion 4) | 49.6 | 24.1 | 32.5 | – | – | – |
| AAACCCUGAGGAUAUGCAUAACAACAAAGCCUCACGUGCCAACAUGAGGAUCACCCAUGUAGAAGGCGGGCCAA [Mod R3 Insanara 18 - Jieux - Exclusion 2] (Eterna round: R97, puzzle: Exclusion 2) | – | – | – | 24.3 | – | 15.7 |
| AAACCUAGUCUAGGAUAUGGUGAGAGUUUGUCGGUGAGUACAUGAGGAUCACCCAUGUACGCUUGCUAGAAGGAGACAGGCUCG [Eternabot solution 37] (Eterna round: R96, puzzle: Exclusion NG 2) | – | – | – | 13.7 | 11.5 | 14.6 |
| AAACCUGCCCAUGACCGCAAGCUUUUUGCUUGUCUUACCACAUGAGGAUCACCCAUGUGGCAUGGGCUCCUUAUAAA [Xemave] (puzzle: Sensor v3, turn-off variant 2) | 14.2 | 11.8 | 11.7 | – | – | – |
